These results are taken from patent publication US20230048960A1 (University of Washington, published 2023).

Square brackets hold non-standard residues; d marks the D form.

Test in all cases: cell-based or functional assay
Assay [1] deals with T1, Aβ42 (UniProt P05067 672-713).
Assay [2] has as its target T1, Aβ42. This is another data set of the same source.
For assay [3], the target named is T2, islet amyloid polypeptide (IAPP) (UniProt P10997 34-70, limits assumed).
T2 peptide (looked up): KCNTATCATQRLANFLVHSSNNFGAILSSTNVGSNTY

T1 sequence (P05067 672-713 limits assumed): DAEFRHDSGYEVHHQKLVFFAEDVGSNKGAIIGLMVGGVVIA

Consider Ac-[dR]G[dE]M[dN]L[dS]W[dM][dN][dE][dY][dY]G[dW]T[dM]N[dM]K[dC]G[dR]-NH2 (also: homodimer: D-Cys21 disulfide-bonded to D-Cys21 of other copy) [AP527d], for which the “% Inhibition 1:10 (AP peptide:Abeta42), ThT assay” value with Aβ42 [1] came out at 96%. In addition, in the assay with Aβ42 [2], the “% inhibition of fibril formation (ThT), AP:Aβ42 1:1” value stood at 100%; the “% inhibition of fibril formation (ThT), AP:Aβ42 1:10” value came to 96.2%; the “% inhibition of fibril formation (ThT), AP:Aβ42 1:100” value came to 86.4%.

B1: AP527m (peptide)
peptide: Ac-[dR]G[dE]M[dN]L[dS]W[dM][dN][dE][dY][dY]G[dW]T[dM]N[dM]K[dC]G[dR]-NH2
SMILES: CSCC[C@H](NC(=O)[C@@H](CCC(=O)O)NC(=O)CNC(=O)[C@@H](CCCNC(=N)N)NC(C)=O)C(=O)N[C@H](CC(N)=O)C(=O)N[C@@H](CC(C)C)C(=O)N[C@H](CO)C(=O)N[C@@H](Cc1c[nH]c2ccccc12)C(=O)N[C@H](CCSC)C(=O)N[C@H](CC(N)=O)C(=O)N[C@H](CCC(=O)O)C(=O)N[C@H](Cc1ccc(O)cc1)C(=O)N[C@H](Cc1ccc(O)cc1)C(=O)NCC(=O)N[C@H](Cc1c[nH]c2ccccc12)C(=O)N[C@H](C(=O)N[C@H](CCSC)C(=O)N[C@@H](CC(N)=O)C(=O)N[C@H](CCSC)C(=O)N[C@@H](CCCCN)C(=O)N[C@H](CS)C(=O)NCC(=O)N[C@H](CCCNC(=N)N)C(N)=O)[C@@H](C)O
As for B1, in the assay with Aβ42 [1], the “% Inhibition 1:10 (AP peptide:Abeta42), ThT assay” value came to 14%. Moreover, in the assay with Aβ42 [2], the “% inhibition of fibril formation (ThT), AP:Aβ42 1:1” value worked out at 54.2%; the “% inhibition of fibril formation (ThT), AP:Aβ42 1:10” value is 14.3%; the “% inhibition of fibril formation (ThT), AP:Aβ42 1:100” value was found to be 0%.

B2: AP090 (peptide)
peptide: Ac-RGE[dM]N[dL]S[dW]MNEYSGW[dT]M[dN]L[dK]MGR-NH2
SMILES: CSCC[C@H](NC(=O)[C@@H](CCCCN)NC(=O)[C@H](CC(C)C)NC(=O)[C@@H](CC(N)=O)NC(=O)[C@H](CCSC)NC(=O)[C@H](NC(=O)[C@H](Cc1c[nH]c2ccccc12)NC(=O)CNC(=O)[C@H](CO)NC(=O)[C@H](Cc1ccc(O)cc1)NC(=O)[C@H](CCC(=O)O)NC(=O)[C@H](CC(N)=O)NC(=O)[C@H](CCSC)NC(=O)[C@@H](Cc1c[nH]c2ccccc12)NC(=O)[C@H](CO)NC(=O)[C@@H](CC(C)C)NC(=O)[C@H](CC(N)=O)NC(=O)[C@@H](CCSC)NC(=O)[C@H](CCC(=O)O)NC(=O)CNC(=O)[C@H](CCCNC(=N)N)NC(C)=O)[C@H](C)O)C(=O)NCC(=O)N[C@@H](CCCNC(=N)N)C(N)=O
Consider B2, for which, in the assay with Aβ42 [2], the “% inhibition of fibril formation (ThT), AP:Aβ42 1:1” value came to 69.7% and the “% inhibition of fibril formation (ThT), AP:Aβ42 1:10” value came to 0%. For the same molecule, in assay [3], the “% inhibition of IAPP amyloid formation, Ratio AP:IAPP 1:1” value worked out at 40%; the “% inhibition of IAPP amyloid formation, Ratio AP:IAPP 4:1” value is 42%; the “% inhibition of IAPP amyloid formation, Ratio AP:IAPP 10:1” value is 65%.
